B1: Adaptin ear-binding coat-associated protein 2 (Mus musculus), Q9D1J1 (parent)
chain: MEESEYESVLCVKPEVHVYRIPPRATNRGYRASEWQLDQPSWSGRLRITAKGKVAYIKLEDRTSGELFAQAPVDQFPGTAVESVTDSSRYFVIRIEDGNGRRAFIGLGFGDRGDAFDFNVALQDHFKWVKQQCEFAKQAQNPDEGPKLDLGFKDGQTIKINIANMRKKEGAAGTPRARPTSAGGLSLLPPPPGGKSSTVIPPSGEQLSVGGSLVQPAVVSGSGGATELWPQSKPAAAATADIWGDFTKSTGSPSSQSQPGTGWVQF
B2: Adaptin ear-binding coat-associated protein 2 (Mus musculus), Q9D1J1 (parent)
chain: B1 chain
partner: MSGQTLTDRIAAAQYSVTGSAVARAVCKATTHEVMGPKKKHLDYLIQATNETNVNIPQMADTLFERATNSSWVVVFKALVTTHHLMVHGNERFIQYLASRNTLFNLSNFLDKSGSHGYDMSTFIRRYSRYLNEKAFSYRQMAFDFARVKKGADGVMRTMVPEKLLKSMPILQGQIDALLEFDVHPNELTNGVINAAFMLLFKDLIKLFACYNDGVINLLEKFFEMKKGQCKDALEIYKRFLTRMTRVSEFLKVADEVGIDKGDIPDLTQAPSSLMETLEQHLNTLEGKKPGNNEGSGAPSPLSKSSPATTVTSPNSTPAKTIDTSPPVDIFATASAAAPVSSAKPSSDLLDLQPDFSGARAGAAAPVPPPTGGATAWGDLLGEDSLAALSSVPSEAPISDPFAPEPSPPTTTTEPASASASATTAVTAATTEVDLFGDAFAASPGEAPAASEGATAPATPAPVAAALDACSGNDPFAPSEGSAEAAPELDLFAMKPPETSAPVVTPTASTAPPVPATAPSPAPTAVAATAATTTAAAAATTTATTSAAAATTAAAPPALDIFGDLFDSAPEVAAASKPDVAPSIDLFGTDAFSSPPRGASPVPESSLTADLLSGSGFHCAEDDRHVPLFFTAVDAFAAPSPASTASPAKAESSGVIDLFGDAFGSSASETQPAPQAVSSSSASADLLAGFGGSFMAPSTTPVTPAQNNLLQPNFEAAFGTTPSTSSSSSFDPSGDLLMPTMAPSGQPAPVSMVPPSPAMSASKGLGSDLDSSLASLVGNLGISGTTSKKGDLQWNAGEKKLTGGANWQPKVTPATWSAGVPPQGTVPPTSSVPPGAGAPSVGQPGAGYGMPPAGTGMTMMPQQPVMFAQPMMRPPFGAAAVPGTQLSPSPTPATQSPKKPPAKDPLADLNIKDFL
B3: Adaptin ear-binding coat-associated protein 2 (Mus musculus), Q9D1J1 (parent)
chain: B1 chain
partner: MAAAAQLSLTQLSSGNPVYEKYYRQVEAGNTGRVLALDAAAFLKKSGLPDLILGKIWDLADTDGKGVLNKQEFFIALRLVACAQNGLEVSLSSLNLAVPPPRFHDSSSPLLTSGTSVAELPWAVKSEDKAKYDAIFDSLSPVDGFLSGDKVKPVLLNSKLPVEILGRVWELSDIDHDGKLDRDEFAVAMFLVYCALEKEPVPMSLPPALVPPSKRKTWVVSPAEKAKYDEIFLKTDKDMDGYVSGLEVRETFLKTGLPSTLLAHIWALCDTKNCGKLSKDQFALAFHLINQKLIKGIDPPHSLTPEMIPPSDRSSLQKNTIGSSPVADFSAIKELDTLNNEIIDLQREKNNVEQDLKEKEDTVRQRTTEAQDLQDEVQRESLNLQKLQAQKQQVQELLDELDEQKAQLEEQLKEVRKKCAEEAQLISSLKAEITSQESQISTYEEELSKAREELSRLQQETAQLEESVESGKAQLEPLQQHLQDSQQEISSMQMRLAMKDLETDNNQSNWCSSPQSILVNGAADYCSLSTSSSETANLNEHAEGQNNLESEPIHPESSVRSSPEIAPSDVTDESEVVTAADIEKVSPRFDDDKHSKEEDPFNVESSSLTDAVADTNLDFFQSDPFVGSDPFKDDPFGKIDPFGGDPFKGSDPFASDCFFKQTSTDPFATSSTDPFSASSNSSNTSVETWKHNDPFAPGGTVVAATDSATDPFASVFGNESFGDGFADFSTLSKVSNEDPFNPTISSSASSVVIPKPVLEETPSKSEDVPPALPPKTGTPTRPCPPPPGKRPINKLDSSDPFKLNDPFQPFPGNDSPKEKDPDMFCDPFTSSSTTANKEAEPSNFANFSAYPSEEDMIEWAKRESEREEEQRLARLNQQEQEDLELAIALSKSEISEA
B4: Adaptin ear-binding coat-associated protein 1 (Mus musculus), Q9CR95 (parent)
chain: MAAELEYESVLCVKPDVSVYRIPPRASNRGYRASDWKLDQPDWTGRLRITSKGKIAYIKLEDKVSGELFAQAPVEQYPGIAVETVTDSSRYFVIRIQDGTGRSAFIGIGFTDRGDAFDFNVSLQDHFKWVKQETEISKESQEMDNRPKLDLGFKEGQTIKLSIGNITAKKGGASKPRASGTGGLSLLPPPPGGKVTIPPPSSSVAISNHVTPPPIPKSNHGGNDSDILLDLDSPAPVSTSAPAPVSTSNDLWGDFSTASSSVPNQAPQPSNWVQF
B5: Adaptin ear-binding coat-associated protein 1 (Mus musculus), Q9CR95 (parent)
chain: B4 chain
partner: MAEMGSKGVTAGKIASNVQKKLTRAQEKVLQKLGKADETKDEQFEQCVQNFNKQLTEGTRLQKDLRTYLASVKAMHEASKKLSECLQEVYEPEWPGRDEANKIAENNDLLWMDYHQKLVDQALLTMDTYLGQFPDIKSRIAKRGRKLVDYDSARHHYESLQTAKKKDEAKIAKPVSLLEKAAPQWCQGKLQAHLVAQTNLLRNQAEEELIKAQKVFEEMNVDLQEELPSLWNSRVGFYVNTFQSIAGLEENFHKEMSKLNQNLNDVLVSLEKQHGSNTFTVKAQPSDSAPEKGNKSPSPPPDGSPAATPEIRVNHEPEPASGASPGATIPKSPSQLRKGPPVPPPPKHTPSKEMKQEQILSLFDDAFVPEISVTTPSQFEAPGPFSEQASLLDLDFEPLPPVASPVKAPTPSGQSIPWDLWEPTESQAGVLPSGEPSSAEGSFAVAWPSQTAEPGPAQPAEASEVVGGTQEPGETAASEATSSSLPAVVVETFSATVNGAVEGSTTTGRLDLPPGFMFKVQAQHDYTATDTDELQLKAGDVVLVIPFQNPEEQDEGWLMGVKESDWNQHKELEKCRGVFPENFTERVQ

Variants of: B1
Details: with Synj1, Q62910-1
Chain of Synj1, Q62910-1 (Q62910 whole entry): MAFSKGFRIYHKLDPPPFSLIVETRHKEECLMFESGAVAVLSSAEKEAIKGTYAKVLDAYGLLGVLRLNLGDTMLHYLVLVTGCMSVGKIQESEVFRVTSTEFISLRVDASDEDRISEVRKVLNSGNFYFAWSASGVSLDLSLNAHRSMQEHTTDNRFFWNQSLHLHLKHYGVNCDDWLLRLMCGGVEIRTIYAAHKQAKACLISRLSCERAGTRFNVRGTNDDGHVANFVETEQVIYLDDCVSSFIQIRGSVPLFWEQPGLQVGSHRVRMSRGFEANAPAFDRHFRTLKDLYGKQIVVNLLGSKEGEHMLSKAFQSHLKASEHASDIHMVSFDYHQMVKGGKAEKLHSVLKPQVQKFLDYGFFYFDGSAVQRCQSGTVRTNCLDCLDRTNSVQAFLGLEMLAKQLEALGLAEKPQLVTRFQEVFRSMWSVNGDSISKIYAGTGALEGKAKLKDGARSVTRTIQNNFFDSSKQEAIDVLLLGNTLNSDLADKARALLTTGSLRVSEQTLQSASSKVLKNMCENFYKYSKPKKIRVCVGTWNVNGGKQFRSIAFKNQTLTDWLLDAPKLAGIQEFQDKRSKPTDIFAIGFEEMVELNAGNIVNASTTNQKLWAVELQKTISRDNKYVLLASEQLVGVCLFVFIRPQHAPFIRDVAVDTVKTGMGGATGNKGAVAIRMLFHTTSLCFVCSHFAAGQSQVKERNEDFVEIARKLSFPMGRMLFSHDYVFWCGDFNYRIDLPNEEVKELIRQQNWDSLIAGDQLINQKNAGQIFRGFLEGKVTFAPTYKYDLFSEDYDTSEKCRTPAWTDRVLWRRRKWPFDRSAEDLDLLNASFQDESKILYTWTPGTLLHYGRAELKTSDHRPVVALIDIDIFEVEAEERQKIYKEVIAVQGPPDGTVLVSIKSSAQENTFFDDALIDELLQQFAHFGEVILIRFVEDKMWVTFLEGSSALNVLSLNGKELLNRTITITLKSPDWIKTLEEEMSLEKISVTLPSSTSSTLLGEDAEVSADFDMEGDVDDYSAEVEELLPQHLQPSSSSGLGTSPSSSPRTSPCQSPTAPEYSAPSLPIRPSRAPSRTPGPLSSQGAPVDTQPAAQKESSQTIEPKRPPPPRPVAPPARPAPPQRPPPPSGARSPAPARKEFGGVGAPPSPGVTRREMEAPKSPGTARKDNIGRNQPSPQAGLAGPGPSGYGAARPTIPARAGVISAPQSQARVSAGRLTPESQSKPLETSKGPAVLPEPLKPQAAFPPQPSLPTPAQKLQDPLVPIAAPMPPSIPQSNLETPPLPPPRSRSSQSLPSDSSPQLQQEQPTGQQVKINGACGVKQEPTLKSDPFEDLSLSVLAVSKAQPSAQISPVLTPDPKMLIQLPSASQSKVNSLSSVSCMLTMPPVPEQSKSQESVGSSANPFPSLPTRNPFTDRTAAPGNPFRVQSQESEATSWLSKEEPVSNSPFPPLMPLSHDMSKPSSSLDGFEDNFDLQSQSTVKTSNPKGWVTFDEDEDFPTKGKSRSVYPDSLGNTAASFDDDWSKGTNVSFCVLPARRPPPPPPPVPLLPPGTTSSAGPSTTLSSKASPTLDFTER

| effect of a mutation on the interaction | Variant |
| --- | --- |
| disrupting interaction | MEESEYESVLCVKPEVHVYRIPPRATNRGYRASEWQLDQPSWSGRLRITAKGKVAYIKLEDRTSGELFAQAPVDQFPGTAVESVTDSSRYFVIRIEDGNGARAFIGLGFGDRGDAFDFNVALQDHFKWVKQQCEFAKQAQNPDEGPKLDLGFKDGQTIKINIANMRKKEGAAGTPRARPTSAGGLSLLPPPPGGKSSTVIPPSGEQLSVGGSLVQPAVVSGSGGATELWPQSKPAAAATADIWGDFTKSTGSPSSQSQPGTGWVQF [R101A] |
| decreasing interaction | MEESEYESVLCVKPEVHVYAIPPRATNRGYRASEWQLDQPSWSGRLRITAKGKVAYIKLEDRTSGELFAQAPVDQFPGTAVESVTDSSRYFVIRIEDGNGRRAFIGLGFGDRGDAFDFNVALQDHFKWVKQQCEFAKQAQNPDEGPKLDLGFKDGQTIKINIANMRKKEGAAGTPRARPTSAGGLSLLPPPPGGKSSTVIPPSGEQLSVGGSLVQPAVVSGSGGATELWPQSKPAAAATADIWGDFTKSTGSPSSQSQPGTGWVQF [R20A] |

Variants of: B1
Details: with epn1_rat Epn1, O88339
Chain of epn1_rat Epn1, O88339 (O88339 whole entry): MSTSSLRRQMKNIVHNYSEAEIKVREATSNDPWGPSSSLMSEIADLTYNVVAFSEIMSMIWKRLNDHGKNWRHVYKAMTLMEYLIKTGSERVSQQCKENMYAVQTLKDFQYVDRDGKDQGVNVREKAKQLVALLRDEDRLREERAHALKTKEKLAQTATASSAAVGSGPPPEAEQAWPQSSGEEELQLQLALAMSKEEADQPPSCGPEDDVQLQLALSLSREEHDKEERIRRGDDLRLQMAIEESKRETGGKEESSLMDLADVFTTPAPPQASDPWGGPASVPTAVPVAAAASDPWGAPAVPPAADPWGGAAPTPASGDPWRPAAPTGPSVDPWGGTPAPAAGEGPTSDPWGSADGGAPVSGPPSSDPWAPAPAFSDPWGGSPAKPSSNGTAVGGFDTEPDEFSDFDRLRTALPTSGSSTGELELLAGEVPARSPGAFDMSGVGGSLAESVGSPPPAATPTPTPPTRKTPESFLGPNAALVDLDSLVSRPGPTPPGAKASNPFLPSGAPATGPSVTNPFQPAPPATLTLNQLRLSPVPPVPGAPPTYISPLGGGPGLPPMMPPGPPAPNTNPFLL

| effect of a mutation on the interaction | Variant |
| --- | --- |
| disrupting interaction | MEESEYESVLCVKPEVHVYRIPPRATNRGYRASEWQLDQPSWSGRLRITAKGKVAYIKLEDRTSGELFAQAPVDQFPGTAVESVTDSSRYFVIRIEDGNGARAFIGLGFGDRGDAFDFNVALQDHFKWVKQQCEFAKQAQNPDEGPKLDLGFKDGQTIKINIANMRKKEGAAGTPRARPTSAGGLSLLPPPPGGKSSTVIPPSGEQLSVGGSLVQPAVVSGSGGATELWPQSKPAAAATADIWGDFTKSTGSPSSQSQPGTGWVQF [R101A] |

Variants of: B2
Details: with ap180_rat Snap91, Q05140

| effect of a mutation on the interaction | Variant |
| --- | --- |
| increasing interaction | MEESEYESVLCVKPEVHVYRIPPRATNRGYRASEWQLDQPAWSGRLRITAKGKVAYIKLEDRTSGELFAQAPVDQFPGTAVESVTDSSRYFVIRIEDGNGRRAFIGLGFGDRGDAFDFNVALQDHFKWVKQQCEFAKQAQNPDEGPKLDLGFKDGQTIKINIANMRKKEGAAGTPRARPTSAGGLSLLPPPPGGKSSTVIPPSGEQLSVGGSLVQPAVVSGSGGATELWPQSKPAAAATADIWGDFTKSTGSPSSQSQPGTGWVQF [S41A] |
| disrupting interaction | MEESEYESVLCVKPEVHVYAIPPRATNRGYRASEWQLDQPSWSGRLRITAKGKVAYIKLEDRTSGELFAQAPVDQFPGTAVESVTDSSRYFVIRIEDGNGRRAFIGLGFGDRGDAFDFNVALQDHFKWVKQQCEFAKQAQNPDEGPKLDLGFKDGQTIKINIANMRKKEGAAGTPRARPTSAGGLSLLPPPPGGKSSTVIPPSGEQLSVGGSLVQPAVVSGSGGATELWPQSKPAAAATADIWGDFTKSTGSPSSQSQPGTGWVQF [R20A] |
| disrupting interaction | MEESEYESVLCVKPEVHVYRIPPRATNRGYRASEWQLDQPSWSGRLRITAKGKVAYIKLEDRTSGELFAQAPVDQFPGTAVESVTDSSRYFVIRIEDGNGARAFIGLGFGDRGDAFDFNVALQDHFKWVKQQCEFAKQAQNPDEGPKLDLGFKDGQTIKINIANMRKKEGAAGTPRARPTSAGGLSLLPPPPGGKSSTVIPPSGEQLSVGGSLVQPAVVSGSGGATELWPQSKPAAAATADIWGDFTKSTGSPSSQSQPGTGWVQF [R101A] |

Variants of: B3
Details: with Eps15, A7BFV9

| effect of a mutation on the interaction | Variant |
| --- | --- |
| disrupting interaction | MEESEYESVLCVKPEVHVYAIPPRATNRGYRASEWQLDQPSWSGRLRITAKGKVAYIKLEDRTSGELFAQAPVDQFPGTAVESVTDSSRYFVIRIEDGNGRRAFIGLGFGDRGDAFDFNVALQDHFKWVKQQCEFAKQAQNPDEGPKLDLGFKDGQTIKINIANMRKKEGAAGTPRARPTSAGGLSLLPPPPGGKSSTVIPPSGEQLSVGGSLVQPAVVSGSGGATELWPQSKPAAAATADIWGDFTKSTGSPSSQSQPGTGWVQF [R20A] |
| disrupting interaction | MEESEYESVLCVKPEVHVYRIPPRATNRGYRASEWQLDQPSWSGRLRITAKGKVAYIKLEDRTSGELFAQAPVDQFPGTAVESVTDSSRYFVIRIEDGNGARAFIGLGFGDRGDAFDFNVALQDHFKWVKQQCEFAKQAQNPDEGPKLDLGFKDGQTIKINIANMRKKEGAAGTPRARPTSAGGLSLLPPPPGGKSSTVIPPSGEQLSVGGSLVQPAVVSGSGGATELWPQSKPAAAATADIWGDFTKSTGSPSSQSQPGTGWVQF [R101A] |

Variants of: B4
Details: with Synj1, Q62910-1

| effect of a mutation on the interaction | Variant |
| --- | --- |
| decreasing interaction | MAAELEYESVLCVKPDVSVYAIPPRASNRGYRASDWKLDQPDWTGRLRITSKGKIAYIKLEDKVSGELFAQAPVEQYPGIAVETVTDSSRYFVIRIQDGTGRSAFIGIGFTDRGDAFDFNVSLQDHFKWVKQETEISKESQEMDNRPKLDLGFKEGQTIKLSIGNITAKKGGASKPRASGTGGLSLLPPPPGGKVTIPPPSSSVAISNHVTPPPIPKSNHGGNDSDILLDLDSPAPVSTSAPAPVSTSNDLWGDFSTASSSVPNQAPQPSNWVQF [R21A] |
| disrupting interaction | MAAELEYESVLCVKPDVSVYRIPPRASNRGYRASDWKLDQPDWTGRLRITSKGKIAYIKLEDKVSGELFAQAPVEQYPGIAVETVTDSSRYFVIRIQDGTGASAFIGIGFTDRGDAFDFNVSLQDHFKWVKQETEISKESQEMDNRPKLDLGFKEGQTIKLSIGNITAKKGGASKPRASGTGGLSLLPPPPGGKVTIPPPSSSVAISNHVTPPPIPKSNHGGNDSDILLDLDSPAPVSTSAPAPVSTSNDLWGDFSTASSSVPNQAPQPSNWVQF [R102A] |

Variants of: B5
Details: with bin1_rat Bin1, O08839

| effect of a mutation on the interaction | Variant |
| --- | --- |
| disrupting interaction | MAAELEYESVLCVKPDVSVYAIPPRASNRGYRASDWKLDQPDWTGRLRITSKGKIAYIKLEDKVSGELFAQAPVEQYPGIAVETVTDSSRYFVIRIQDGTGRSAFIGIGFTDRGDAFDFNVSLQDHFKWVKQETEISKESQEMDNRPKLDLGFKEGQTIKLSIGNITAKKGGASKPRASGTGGLSLLPPPPGGKVTIPPPSSSVAISNHVTPPPIPKSNHGGNDSDILLDLDSPAPVSTSAPAPVSTSNDLWGDFSTASSSVPNQAPQPSNWVQF [R21A] |
| disrupting interaction | MAAELEYESVLCVKPDVSVYRIPPRASNRGYRASDWKLDQPDWTGRLRITSKGKIAYIKLEDKVSGELFAQAPVEQYPGIAVETVTDSSRYFVIRIQDGTGASAFIGIGFTDRGDAFDFNVSLQDHFKWVKQETEISKESQEMDNRPKLDLGFKEGQTIKLSIGNITAKKGGASKPRASGTGGLSLLPPPPGGKVTIPPPSSSVAISNHVTPPPIPKSNHGGNDSDILLDLDSPAPVSTSAPAPVSTSNDLWGDFSTASSSVPNQAPQPSNWVQF [R102A] |

— IntAct's records for PubMed 17762867
